{"source": "patent US20150020221A1", "target": "PARP1 (endogenous, Hela cell lysate) (human) (UniProt P09874)", "sequence (P09874 2-1014 limits assumed)": "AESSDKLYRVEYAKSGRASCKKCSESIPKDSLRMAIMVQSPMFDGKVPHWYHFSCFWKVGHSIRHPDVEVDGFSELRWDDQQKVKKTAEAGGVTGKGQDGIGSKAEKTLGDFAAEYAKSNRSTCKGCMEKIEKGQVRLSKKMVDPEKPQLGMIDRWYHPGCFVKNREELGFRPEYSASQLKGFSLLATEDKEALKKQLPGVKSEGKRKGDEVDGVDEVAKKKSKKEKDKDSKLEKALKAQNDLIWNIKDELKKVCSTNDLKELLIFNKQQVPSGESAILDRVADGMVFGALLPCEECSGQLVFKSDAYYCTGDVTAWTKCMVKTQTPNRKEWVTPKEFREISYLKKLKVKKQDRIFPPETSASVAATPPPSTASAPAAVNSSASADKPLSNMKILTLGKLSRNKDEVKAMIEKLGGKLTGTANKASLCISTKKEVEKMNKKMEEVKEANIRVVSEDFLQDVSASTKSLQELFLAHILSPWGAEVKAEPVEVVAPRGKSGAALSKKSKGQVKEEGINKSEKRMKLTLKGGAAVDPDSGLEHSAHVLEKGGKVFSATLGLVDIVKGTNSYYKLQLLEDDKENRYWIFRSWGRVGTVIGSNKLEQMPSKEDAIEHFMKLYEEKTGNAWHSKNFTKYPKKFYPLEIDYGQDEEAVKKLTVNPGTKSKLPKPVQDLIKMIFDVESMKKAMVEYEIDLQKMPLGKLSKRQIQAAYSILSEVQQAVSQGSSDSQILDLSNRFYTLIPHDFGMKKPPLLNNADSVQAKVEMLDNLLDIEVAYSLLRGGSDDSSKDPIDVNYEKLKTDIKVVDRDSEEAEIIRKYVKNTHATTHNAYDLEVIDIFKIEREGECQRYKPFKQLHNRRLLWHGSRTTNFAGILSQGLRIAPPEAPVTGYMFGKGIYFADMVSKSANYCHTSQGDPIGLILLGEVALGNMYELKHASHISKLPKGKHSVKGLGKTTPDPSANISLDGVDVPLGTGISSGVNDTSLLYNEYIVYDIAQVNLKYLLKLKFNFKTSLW", "assay": "scanning densitometry of PARP1 immunoprecipitates from Hela cells (FIG. 4B)"}
{"substance": "BAL1 (endogenous, Hela cell lysate) (from UniProt Q8IXQ6 1-854)", "values": [{"measurement": "fold increase co-immunoprecipitated with PARP1 (Dox-treated versus untreated cells)", "value": 4.8, "unit": "fold"}]}
